# In patent US20240150441A1:
# Key:
# [1] = molecular target: spike (S) protein of the BA.4/5 SARS-CoV-2 pseudovirus (SARS-CoV-2, Omicron subvariant BA.4/5) (UniProt P0DTC2); assay: cell-based or functional assay
# [2] = molecular target: spike (S) protein of the authentic parental Omicron variant (B.1.1.529) of SARS-CoV-2 (SARS-CoV-2, B.1.1.529 (Omicron) variant) (UniProt P0DTC2); assay: cell-based or functional assay
substance,measurement,setting,value
plant-made cilgavimab (pCilgavimab) (antibody),"neutralization of BA.4/5 pseudovirus, luciferase reporter assay, IC50",[1],0.102 µg/mL
same,"neutralization of authentic B.1.1.529 (Omicron) virus, foci-forming assay, IC50",[2],2.23 µg/mL
